{"source": "patent US20240368250A1", "about": "(Ablynx, published 2024)", "binders": {"B1": {"name": "T-0263-00_TP123 (antibody, human IgG1, kappa)", "heavy 1": "not shown", "heavy 2": "EVQLVESGGGLVQPGGSLRLSCAASGFNIRDTYIHWVRQAPGKGLEWVARIYPTQGYTRYADSVKGRFTISADTSKNTAYLQMNSLRAEDTAVYYCSRWGGEGFYAMDYWGQGTLVTVSSASTKGPSVFPLAPSSKSTSGGTAALGCLVKDYFPEPVTVSWNSGALTSGVHTFPAVLQSSGLYSLSSVVTVPSSSLGTQTYICNVNHKPSNTKVDKKVEPKSCDKTHTCPPCPAPELLGGPSVFLFPPKPKDTLMISRTPEVTCVVVDVSHEDPEVKFNWYVDGVEVHNAKTKPREEQYNSTYRVVSVLTVLHQDWLNGKEYKCKVSNKALPAPIEKTISKAKGQPREPQVCTLPPSRDELTKNQVSLSCAVKGFYPSDIAVEWESNGQPENNYKTTPPVLDSDGSFFLVSKLTVDKSRWQQGNVFSCSVMHEALHNRFTQKSLSLSPGGGGGSGGGSEVQLVESGGGVVQPGGSLRLSCAASGFTFRSFGMSWVRQAPGKGPEWVSSISGSGSDTLYADSVKGRFTISRDNSKNTLYLQMNSLRPEDTALYYCTIGGSLSRSSQGTLVTVSSA", "light": "not shown", "notes": "Full-length IgG1 knob-in-hole with two C-terminal ALB23002-A (9GS), one on each heavy chain"}, "B2": {"name": "TP006 (Fc fusion)", "chain 1": "DVQLVESGGGLVQPGGSLRLSCAASGLTFSTNPMYWYRQAPGKQRELVASISSRGITNYADSVKGRFTISRDNSKNTVYLQMNSLRPEDTAVYYCRLASLSSGTVYWGQGTLVTVSSDKTHTCPPCPAPEAAGGPSVFLFPPKPKDTLMISRTPEVTCVVVDVSQEDPEVQFNWYVDGVEVHNAKTKPREEQFNSTYRVVSVLTVLHQDWLNGKEYKCKVSNKGLPSSIEKTISKAKGQPREPQVYTLPPCQEEMTKNQVSLWCLVKGFYPSDIAVEWESNGQPENNYKTTPPVLDSDGSFFLYSKLTVDKSRWQEGNVFSCSVMHEALHNHYTQKSLSLSLGGGGGSGGGGSGGGGSGGGGSGGGGSGGGGSGGGGSEVQLVESGGGVVQPGGSLRLSCAASGFTFRSFGMSWVRQAPGKGPEWVSSISGSGSDTLYADSVKGRFTISRDNSKNTLYLQMNSLRPEDTALYYCTIGGSLSRSSQGTLVTVSS", "chain 2": "DKTHTCPPCPAPEAAGGPSVFLFPPKPKDTLMISRTPEVTCVVVDVSQEDPEVQFNWYVDGVEVHNAKTKPREEQFNSTYRVVSVLTVLHQDWLNGKEYKCKVSNKGLPSSIEKTISKAKGQPREPQVCTLPPSQEEMTKNQVSLSCAVKGFYPSDIAVEWESNGQPENNYKTTPPVLDSDGSFFLVSKLTVDKSRWQEGNVFSCSVMHEALHNHYTQKSLSLSLG", "notes": "IgG4 FALA Fc (knob-in-hole); irrelevant ISVD N-terminal and ALB23002 C-terminal (35GS) on chain 1; chain 2 is hinge-Fc only"}, "B3": {"name": "T-0263-00_TP121 (antibody, human IgG1, kappa)", "heavy 1": "not shown", "heavy 2": "EVQLVESGGGLVQPGGSLRLSCAASGFNIRDTYIHWVRQAPGKGLEWVARIYPTQGYTRYADSVKGRFTISADTSKNTAYLQMNSLRAEDTAVYYCSRWGGEGFYAMDYWGQGTLVTVSSASTKGPSVFPLAPSSKSTSGGTAALGCLVKDYFPEPVTVSWNSGALTSGVHTFPAVLQSSGLYSLSSVVTVPSSSLGTQTYICNVNHKPSNTKVDKKVEPKSCDKTHTCPPCPAPELLGGPSVFLFPPKPKDTLMISRTPEVTCVVVDVSHEDPEVKFNWYVDGVEVHNAKTKPREEQYNSTYRVVSVLTVLHQDWLNGKEYKCKVSNKALPAPIEKTISKAKGQPREPQVCTLPPSRDELTKNQVSLSCAVKGFYPSDIAVEWESNGQPENNYKTTPPVLDSDGSFFLVSKLTVDKSRWQQGNVFSCSVMHEALHNRFTQKSLSLSPG", "light": "not shown", "notes": "Full-length IgG1 knob-in-hole with one C-terminal ALB23002-A (9GS) on chain 1"}}, "key": {"[1]": {"target": "T1, Mouse serum albumin (MSA; Albumin Bioscience Cat No. 2601) (mouse, UniProt P07724 25-608)", "test": "SPR Biacore 8K+, MSA on C1 chip, pH 7.4, bivalent analyte fit (ka1)"}, "[2]": {"target": "T2, Human FcRn (biotinylated human FcRn) (human, UniProt P61769 21-119)", "T2 construct": "Biotinylated human FcRn captured on a Series S Sensor Chip SA; also called human neonatal Fc receptor; hFcRn", "test": "SPR Biacore 8K+, biotinylated hFcRn on SA chip (~700 RU), pH 6.0, bivalent analyte fit (kd1)"}, "[3]": {"target": "T3, Human serum albumin (HSA; Sigma-Aldrich Cat No. A8763) (human, UniProt P02768 25-609)", "test": "SPR Biacore 8K+, HSA on C1 chip, pH 7.4, bivalent analyte fit (kd1)"}, "[4]": {"target": "T3, Human serum albumin (HSA; Sigma-Aldrich …)", "test": "SPR Biacore 8K+, HSA on C1 chip, pH 7.4, bivalent analyte fit (ka1)"}, "[5]": {"target": "T1, Mouse serum albumin (MSA; Albumin …)", "test": "SPR Biacore 8K+, MSA on C1 chip, pH 7.4, bivalent analyte fit (KD1)"}, "[6]": {"target": "T2, Human FcRn (biotinylated human FcRn)", "test": "SPR Biacore 8K+, biotinylated hFcRn on SA chip (~700 RU), pH 6.0, bivalent analyte fit"}, "[7]": {"target": "T2, Human FcRn (biotinylated human FcRn)", "test": "SPR Biacore 8K+, biotinylated hFcRn on SA chip (~700 RU), pH 6.0, bivalent analyte fit (KD1)"}, "[8]": {"target": "T3, Human serum albumin (HSA; Sigma-Aldrich …)", "test": "SPR Biacore 8K+, HSA on C1 chip, pH 7.4, bivalent analyte fit (KD1)"}, "[9]": {"target": "T2, Human FcRn (biotinylated human FcRn)", "test": "SPR Biacore 8K+, biotinylated hFcRn on SA chip (~700 RU), pH 6.0, bivalent analyte fit (ka1)"}, "[10]": {"target": "T1, Mouse serum albumin (MSA; Albumin …)", "test": "SPR Biacore 8K+, MSA on C1 chip, pH 7.4, bivalent analyte fit (kd1)"}, "[11]": {"target": "T2, Human FcRn (biotinylated human FcRn)", "test": "SPR Biacore 8K+, biotinylated hFcRn on SA chip (~1000-2000 RU), pH 6.0, no HSA, 1:1 fit"}, "[12]": {"target": "T2, Human FcRn (biotinylated human FcRn)", "test": "SPR Biacore 8K+, biotinylated hFcRn on SA chip (~1000-2000 RU), pH 6.0, no HSA, bivalent analyte fit (ka1)"}, "[13]": {"target": "T2, Human FcRn (biotinylated human FcRn)", "test": "SPR Biacore 8K+, biotinylated hFcRn on SA chip (~1000-2000 RU), pH 6.0, no HSA, bivalent analyte fit (kd1)"}, "[14]": {"target": "T2, Human FcRn (biotinylated human FcRn)", "test": "SPR Biacore 8K+, biotinylated hFcRn on SA chip (~600 RU), pH 6.0, bivalent analyte fit"}, "[15]": {"target": "T3, Human serum albumin (HSA; Sigma-Aldrich …)", "test": "SPR Biacore 8K+, HSA on CM5 chip, pH 7.4, 1:1 fit"}, "[16]": {"target": "T2, Human FcRn (biotinylated human FcRn)", "test": "SPR Biacore 8K+, biotinylated hFcRn on SA chip (~600 RU), pH 6.0, bivalent analyte fit (kd1)"}, "[17]": {"target": "T2, Human FcRn (biotinylated human FcRn)", "test": "SPR Biacore 8K+, biotinylated hFcRn on SA chip (~600 RU), pH 6.0, bivalent analyte fit (ka1)"}, "[18]": {"target": "T2, Human FcRn (biotinylated human FcRn)", "test": "SPR Biacore 8K+, biotinylated hFcRn on SA chip (~1000-2000 RU), pH 6.0, no HSA, bivalent analyte fit (KD1)"}, "[19]": {"target": "T2, Human FcRn (biotinylated human FcRn)", "test": "SPR Biacore 8K+, biotinylated hFcRn on SA chip (~600 RU), pH 6.0, bivalent analyte fit (KD1)"}, "[20]": {"target": "T1, Mouse serum albumin (MSA; Albumin …)", "test": "SPR Biacore 8K+, MSA on CM5 chip, pH 6.0, 1:1 fit"}, "[21]": {"target": "T2, Human FcRn (biotinylated human FcRn)", "test": "SPR Biacore 8K+, biotinylated hFcRn on SA chip (~1000-2000 RU), pH 6.0, with 30 uM HSA, bivalent analyte fit (kd1); remark: no good fit possible"}, "[22]": {"target": "T3, Human serum albumin (HSA; Sigma-Aldrich …)", "test": "SPR Biacore 8K+, HSA on CM5 chip, pH 6.0, 1:1 fit"}, "[23]": {"target": "T1, Mouse serum albumin (MSA; Albumin …)", "test": "SPR Biacore 8K+, MSA on CM5 chip, pH 7.4, 1:1 fit"}, "[24]": {"target": "T2, Human FcRn (biotinylated human FcRn)", "test": "SPR Biacore 8K+, biotinylated hFcRn on SA chip (~1000-2000 RU), pH 6.0, no HSA, bivalent analyte fit"}, "[25]": {"target": "T1, Mouse serum albumin (MSA; Albumin …)", "test": "SPR Biacore 8K+, MSA on C1 chip, pH 7.4, 1:1 fit (off-rate only)"}, "[26]": {"target": "T3, Human serum albumin (HSA; Sigma-Aldrich …)", "test": "SPR Biacore 8K+, HSA on C1 chip, pH 7.4, 1:1 fit"}}}
{"binder": "B1", "values": [{"measurement": "kon", "setting": "[1]", "result": 61400, "unit": "M⁻¹ s⁻¹"}, {"measurement": "koff", "setting": "[2]", "result": 0.15, "unit": "s⁻¹"}, {"measurement": "koff", "setting": "[3]", "result": 0.00253, "unit": "s⁻¹"}, {"measurement": "kon", "setting": "[4]", "result": 37500, "unit": "M⁻¹ s⁻¹"}, {"measurement": "Kd", "setting": "[5]", "result": 560, "unit": "nM"}, {"measurement": "ka2", "setting": "[6]", "result": "1.7e-05 1/RUs"}, {"measurement": "kd2", "setting": "[6]", "result": 0.00059, "unit": "s⁻¹"}, {"measurement": "Kd", "setting": "[7]", "result": 2400, "unit": "nM"}, {"measurement": "Kd", "setting": "[8]", "result": 67.4, "unit": "nM"}, {"measurement": "kon", "setting": "[9]", "result": 63000, "unit": "M⁻¹ s⁻¹"}, {"measurement": "koff", "setting": "[10]", "result": 0.0344, "unit": "s⁻¹"}]}
{"binder": "B2", "values": [{"measurement": "Kd", "setting": "[11]", "result": 18, "unit": "nM"}, {"measurement": "koff", "setting": "[11]", "result": 0.083, "unit": "s⁻¹"}, {"measurement": "kon", "setting": "[11]", "result": "4.5e+06", "unit": "M⁻¹ s⁻¹"}, {"measurement": "kon", "setting": "[12]", "result": 140000, "unit": "M⁻¹ s⁻¹"}, {"measurement": "koff", "setting": "[13]", "result": 0.042, "unit": "s⁻¹"}, {"measurement": "ka2", "setting": "[14]", "result": "10.7 1/RUs"}, {"measurement": "kd2", "setting": "[14]", "result": 71.9, "unit": "s⁻¹"}, {"measurement": "Kd", "setting": "[15]", "result": 67, "unit": "nM"}, {"measurement": "koff", "setting": "[15]", "result": 0.0017, "unit": "s⁻¹"}, {"measurement": "kon", "setting": "[15]", "result": 26000, "unit": "M⁻¹ s⁻¹"}, {"measurement": "koff", "setting": "[16]", "result": 0.00402, "unit": "s⁻¹"}, {"measurement": "kon", "setting": "[17]", "result": 9440, "unit": "M⁻¹ s⁻¹"}, {"measurement": "Kd", "setting": "[18]", "result": 290, "unit": "nM"}, {"measurement": "Kd", "setting": "[19]", "result": 426, "unit": "nM"}, {"measurement": "Kd", "setting": "[20]", "result": 84, "unit": "nM"}, {"measurement": "koff", "setting": "[20]", "result": 0.0026, "unit": "s⁻¹"}, {"measurement": "kon", "setting": "[20]", "result": 31000, "unit": "M⁻¹ s⁻¹"}, {"measurement": "koff", "setting": "[21]", "result": 0.0016, "unit": "s⁻¹"}, {"measurement": "Kd", "setting": "[22]", "result": 32, "unit": "nM"}, {"measurement": "koff", "setting": "[22]", "result": 0.0017, "unit": "s⁻¹"}, {"measurement": "kon", "setting": "[22]", "result": 54000, "unit": "M⁻¹ s⁻¹"}, {"measurement": "Kd", "setting": "[23]", "result": 120, "unit": "nM"}, {"measurement": "koff", "setting": "[23]", "result": 0.0028, "unit": "s⁻¹"}, {"measurement": "kon", "setting": "[23]", "result": 23000, "unit": "M⁻¹ s⁻¹"}, {"measurement": "ka2", "setting": "[24]", "result": "0.00013 1/RUs"}, {"measurement": "kd2", "setting": "[24]", "result": 0.002, "unit": "s⁻¹"}]}
{"binder": "B3", "values": [{"measurement": "koff", "setting": "[25]", "result": 0.0385, "unit": "s⁻¹"}, {"measurement": "koff", "setting": "[2]", "result": 0.16, "unit": "s⁻¹"}, {"measurement": "ka2", "setting": "[6]", "result": "1.8e-05 1/RUs"}, {"measurement": "kd2", "setting": "[6]", "result": 0.00036, "unit": "s⁻¹"}, {"measurement": "Kd", "setting": "[7]", "result": 2300, "unit": "nM"}, {"measurement": "Kd", "setting": "[26]", "result": 76.4, "unit": "nM"}, {"measurement": "koff", "setting": "[26]", "result": 0.00204, "unit": "s⁻¹"}, {"measurement": "kon", "setting": "[26]", "result": 26700, "unit": "M⁻¹ s⁻¹"}, {"measurement": "kon", "setting": "[9]", "result": 71000, "unit": "M⁻¹ s⁻¹"}]}
